The target of assay [1] is KLB (beta-klotho) on KLB only expressing cells (UniProt Q86Z14). In words: cell-based or functional assay.
In assay [2] the target is KLB/FGFR4 on KLB/FGFR4 expressing cells (UniProt Q86Z14). The experiment in a line: cell-based or functional assay.

A value given as a limit tells only on which side of the number the result lay.

Sequence of KLB (beta-klotho) on KLB only expressing cells (Q86Z14 whole entry): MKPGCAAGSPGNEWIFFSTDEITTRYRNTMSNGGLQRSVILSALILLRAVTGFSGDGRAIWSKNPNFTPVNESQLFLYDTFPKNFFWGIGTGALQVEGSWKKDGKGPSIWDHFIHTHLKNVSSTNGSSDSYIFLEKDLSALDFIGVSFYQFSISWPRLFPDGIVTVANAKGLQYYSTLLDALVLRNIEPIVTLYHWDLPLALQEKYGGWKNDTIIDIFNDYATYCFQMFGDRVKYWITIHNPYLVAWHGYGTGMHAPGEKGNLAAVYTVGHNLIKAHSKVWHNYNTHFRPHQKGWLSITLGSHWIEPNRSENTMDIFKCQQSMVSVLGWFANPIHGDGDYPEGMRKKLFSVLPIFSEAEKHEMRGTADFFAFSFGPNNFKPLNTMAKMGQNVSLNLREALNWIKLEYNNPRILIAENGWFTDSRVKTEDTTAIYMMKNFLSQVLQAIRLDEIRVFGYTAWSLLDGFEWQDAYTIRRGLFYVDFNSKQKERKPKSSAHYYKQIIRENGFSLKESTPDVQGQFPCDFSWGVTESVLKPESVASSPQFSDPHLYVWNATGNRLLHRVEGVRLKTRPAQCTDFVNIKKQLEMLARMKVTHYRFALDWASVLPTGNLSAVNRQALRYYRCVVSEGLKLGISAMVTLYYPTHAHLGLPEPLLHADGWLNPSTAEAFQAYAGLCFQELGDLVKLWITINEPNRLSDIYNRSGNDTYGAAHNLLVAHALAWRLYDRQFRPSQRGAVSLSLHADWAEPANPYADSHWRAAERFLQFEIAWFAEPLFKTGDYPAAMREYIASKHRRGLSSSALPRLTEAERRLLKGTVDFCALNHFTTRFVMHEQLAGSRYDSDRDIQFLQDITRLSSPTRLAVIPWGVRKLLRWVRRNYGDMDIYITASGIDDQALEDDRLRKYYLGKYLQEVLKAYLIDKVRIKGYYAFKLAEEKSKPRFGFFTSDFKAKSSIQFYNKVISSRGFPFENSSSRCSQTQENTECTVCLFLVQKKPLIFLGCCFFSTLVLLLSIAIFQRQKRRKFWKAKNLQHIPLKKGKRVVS
Sequence of KLB/FGFR4 on KLB/FGFR4 expressing cells (Q86Z14 whole entry, chain 1 of 2): as the sequence (Q86Z14 whole entry) above
Sequence of KLB/FGFR4 on KLB/FGFR4 expressing cells (P22455 22-802 limits assumed, chain 2 of 2, further chain): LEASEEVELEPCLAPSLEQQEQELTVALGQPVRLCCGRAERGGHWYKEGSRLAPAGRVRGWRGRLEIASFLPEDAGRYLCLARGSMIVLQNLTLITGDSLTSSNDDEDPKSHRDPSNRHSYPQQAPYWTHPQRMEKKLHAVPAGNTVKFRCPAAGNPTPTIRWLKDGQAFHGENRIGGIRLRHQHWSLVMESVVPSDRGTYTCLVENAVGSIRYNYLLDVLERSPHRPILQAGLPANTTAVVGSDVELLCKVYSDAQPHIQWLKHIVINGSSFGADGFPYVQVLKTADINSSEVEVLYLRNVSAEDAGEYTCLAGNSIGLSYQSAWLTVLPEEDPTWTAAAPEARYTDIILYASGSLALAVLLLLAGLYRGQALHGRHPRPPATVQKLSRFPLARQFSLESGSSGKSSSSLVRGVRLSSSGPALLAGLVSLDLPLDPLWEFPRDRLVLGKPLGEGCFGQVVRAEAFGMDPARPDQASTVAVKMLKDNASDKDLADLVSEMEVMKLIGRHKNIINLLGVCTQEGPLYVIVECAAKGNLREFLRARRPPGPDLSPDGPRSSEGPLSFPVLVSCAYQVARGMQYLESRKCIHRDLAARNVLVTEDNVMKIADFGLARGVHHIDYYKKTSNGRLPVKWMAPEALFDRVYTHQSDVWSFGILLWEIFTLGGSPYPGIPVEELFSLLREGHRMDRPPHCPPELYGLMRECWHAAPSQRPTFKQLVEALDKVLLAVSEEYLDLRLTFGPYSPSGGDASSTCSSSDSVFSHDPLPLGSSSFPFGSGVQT

Consider “FGF-19 (from UniProt O95750 25-216) (ligand)”, for which, in assay [1], the fold increase of pERK at 3000 nM is 2 fold.

Regarding “Mutant FGF21-GalNAc-SA-PEG-20 kDa (BIO89-100) (from UniProt Q9NSA1 29-209) (ligand)”, in assay [2], the fold increase in pERK at the highest concentration of 3000 nM was < 2 fold.

As for “native FGF-21 (from UniProt Q9NSA1 29-209) (ligand)”, in assay [2], the fold increase in pERK at the highest concentration of 3000 nM was < 2 fold. The fold increase of pERK at 3000 nM in assay [1] came out at 2 fold.

These data come from patent US11427623.
